From paper PMC10673981

Target: retinal guanylate cyclase GC1, eGFP fusion (mGFP-GC1 cells) (human) (UniProt Q02846)
UniProt Q02846, sequence (Q02846 52-1103): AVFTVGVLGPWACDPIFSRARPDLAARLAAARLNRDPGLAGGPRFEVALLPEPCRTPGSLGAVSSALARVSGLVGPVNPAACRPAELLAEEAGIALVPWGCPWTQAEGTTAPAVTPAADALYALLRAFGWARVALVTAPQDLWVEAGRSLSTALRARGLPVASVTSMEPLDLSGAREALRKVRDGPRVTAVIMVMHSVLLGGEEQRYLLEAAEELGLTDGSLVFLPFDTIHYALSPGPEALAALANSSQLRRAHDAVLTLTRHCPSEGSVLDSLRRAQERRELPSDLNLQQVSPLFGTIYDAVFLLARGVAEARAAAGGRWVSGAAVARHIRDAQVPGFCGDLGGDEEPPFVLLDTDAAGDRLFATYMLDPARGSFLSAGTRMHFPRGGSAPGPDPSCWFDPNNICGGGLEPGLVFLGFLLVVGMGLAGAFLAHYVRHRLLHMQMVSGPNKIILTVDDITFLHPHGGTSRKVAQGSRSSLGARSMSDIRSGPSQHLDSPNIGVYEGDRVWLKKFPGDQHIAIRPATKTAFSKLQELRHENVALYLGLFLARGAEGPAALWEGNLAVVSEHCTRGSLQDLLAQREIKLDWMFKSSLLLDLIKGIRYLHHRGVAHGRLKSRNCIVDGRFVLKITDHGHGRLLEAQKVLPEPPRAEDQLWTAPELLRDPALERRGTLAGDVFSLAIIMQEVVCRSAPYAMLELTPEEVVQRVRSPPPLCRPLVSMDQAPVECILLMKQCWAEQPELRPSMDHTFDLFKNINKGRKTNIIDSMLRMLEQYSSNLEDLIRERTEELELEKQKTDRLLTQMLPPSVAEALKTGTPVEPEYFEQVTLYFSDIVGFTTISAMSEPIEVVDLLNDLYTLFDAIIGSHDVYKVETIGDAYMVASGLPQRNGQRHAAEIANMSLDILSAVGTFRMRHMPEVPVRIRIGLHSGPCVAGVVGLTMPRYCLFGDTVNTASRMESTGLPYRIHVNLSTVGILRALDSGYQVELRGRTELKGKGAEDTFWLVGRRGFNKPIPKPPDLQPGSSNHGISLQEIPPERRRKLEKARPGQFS

Row | Substance | EC50: GCAP1 concentration (0–20 µM) at which cGMP synthesis by GC1 in HEK293 cell membranes is half-maximal, at low Ca2+ (< 19 nM) [nM]
1 | Human myristoylated WT-GCAP1 (guanylate cyclase-activating protein 1) (from UniProt P43080 1-201) (natural protein) | 1880
2 | E111V-GCAP1 (cone-rod dystrophy-associated variant of human GCAP1) (from UniProt P43080 1-201) (natural protein) | 1550
